Results on one molecule are retold here after paper PMC9784774.

Common to all, as to assay: SPR; Biacore X100, CM5 chip, RT, 1:1 binding model; methods: antibody (4 μg/mL) captured by anti-human Fc IgG to about 100 RU, pentamer or trimer in five 2-fold dilutions injected at 30 μL/min, 90 s association, 600 s dissociation (the legend of Fig. 5 tells the reverse orientation)
A general note: SPR reads the build-up and loss of mass on a sensor chip optically.

The target of test [1] is pentamer mutant UL128_K47A (human cytomegalovirus | human cytomegalovirus strain VR1814).
Test [2] concerns the target pentamer mutant UL128_T94A (human cytomegalovirus | human cytomegalovirus strain VR1814).
Test [3] has as its target pentamer mutant UL131A_E23A (human cytomegalovirus | human cytomegalovirus strain VR1814).
In test [4] the target is pentamer mutant UL131A_K27A (human cytomegalovirus | human cytomegalovirus strain VR1814).

B1: MAb 9I6 (antibody, V domains shown)
VH: EVQLVQSGAEVKKPGESLKISCRESGDTFPAYWIAWVRQMPGKGLEWMGIIYPIDSETTYSPSFQGQVTISADKSINTAYLQWSSLKASDSAIYYCARGTSTGLREAFHIWGQGTMVTVSS
VL: DVVMTQSPLSLAVTLGQPAYISCRSSQSLGYSDGNTYLNWFQQRPGQSPRRLIYEVSNRDSGVPDRFSGSGSGTDFTLKISRVEAEDVGTYYCMQGTHWPPMCSFGQGTKLEIK
The Kd is the constant that tells how readily two partners part at equilibrium. Low values mean higher affinity, high ones lower affinity. One may read the koff as the rate constant with which the complex falls apart. One may read the kon as the rate constant with which the complex forms. Take B1: the Kd worked out at 1.5 nM in test [1], 0.57 nM in test [2], 2.83 nM in test [3] and 1.91 nM in test [4]. In addition, the dissociation rate constant (koff) in test [1] was found to be 7.38e-05 s⁻¹; in test [2], 3e-05 s⁻¹; in test [3], 0.000115 s⁻¹; in test [4], 0.000181 s⁻¹. Also, the kon came to 49200 M⁻¹ s⁻¹ in test [1], 53100 M⁻¹ s⁻¹ in test [2], 40700 M⁻¹ s⁻¹ in test [3] and 94700 M⁻¹ s⁻¹ in test [4].
